Laboratory results published in patent publication US20180185504A1.

Legend:
[1] = biological target: mouse PRLR construct with an HA tag on HEK293/mPRLR cells (mouse) (UniProt Q08501); test: FACS on HEK293/mPRLR cells
[2] = biological target: human prolactin (PRL) (human) (UniProt P01236); test: ELISA: dimeric PRLR (3.38 pM to 200 nM) on plate-coated human PRL (1 µg/mL), HRP anti-Fc-gamma detection
Sequence of human prolactin (PRL) (human) (P01236 29-227 limits assumed): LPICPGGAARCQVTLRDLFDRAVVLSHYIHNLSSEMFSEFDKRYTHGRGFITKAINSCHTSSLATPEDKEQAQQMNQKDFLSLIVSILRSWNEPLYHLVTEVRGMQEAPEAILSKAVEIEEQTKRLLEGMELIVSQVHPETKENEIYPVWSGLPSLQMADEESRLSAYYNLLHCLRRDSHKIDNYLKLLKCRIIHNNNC

Sequence of mouse PRLR construct with an HA tag on HEK293/mPRLR cells (mouse) (Q08501 20-608): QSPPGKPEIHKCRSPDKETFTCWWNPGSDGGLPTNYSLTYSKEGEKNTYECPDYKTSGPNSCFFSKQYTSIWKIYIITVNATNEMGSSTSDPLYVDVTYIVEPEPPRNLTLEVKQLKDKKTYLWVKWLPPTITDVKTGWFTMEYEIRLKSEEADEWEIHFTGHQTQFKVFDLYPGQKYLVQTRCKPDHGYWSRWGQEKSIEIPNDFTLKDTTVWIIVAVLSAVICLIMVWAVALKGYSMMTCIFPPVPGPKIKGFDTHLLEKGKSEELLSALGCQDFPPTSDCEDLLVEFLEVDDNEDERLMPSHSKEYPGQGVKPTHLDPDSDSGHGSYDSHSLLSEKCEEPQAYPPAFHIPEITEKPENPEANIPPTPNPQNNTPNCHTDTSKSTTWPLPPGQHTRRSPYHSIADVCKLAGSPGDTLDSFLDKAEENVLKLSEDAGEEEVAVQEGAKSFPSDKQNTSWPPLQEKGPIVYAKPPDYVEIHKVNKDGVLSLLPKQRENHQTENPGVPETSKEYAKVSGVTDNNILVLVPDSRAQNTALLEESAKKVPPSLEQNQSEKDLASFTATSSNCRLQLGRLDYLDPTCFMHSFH

Row | Binder | FACS Cell Binding (Fold Above Background) [1] | EC50 [2]
1 | H1H6801P (antibody, human IgG1, V domains shown) VH: QVQLQQSGPGLVKPSQTLSLTCVISGDSVSSNTAWNWVRQSPSRGLEWLGRTYYRSKWYNDYAVSVKSRITINPDTSKNQFSLLMNSVTPEDTAVYYCARVVRGLNYFDYWGQGTLVTVSS VL: DIVMTQSPDSLAVSLGERATINCKSSQSVLYNSNNKNYLAWYQQKPGQPPKLLIYWSSSRESGVPDRFSGSGSGTDFTLTISGLQAEDVAIYYCQQYSTIPYTFGQGTKLEIK | 56 fold | –
2 | dimeric form of human PRLR (Example 12 ELISA) (Fc fusion, part only; not given: Dimerising Fc part, part only) chain, part: QLPPGKPEIFKCRSPNKETFTCWWRPGTDGGLPTNYSLTYHREGETLMHECPDYITGGPNSCHFGKQYTSMWRTYIMMVNATNQMGSSFSDELYVDVTYIVQPDPPLELAVEVKQPEDRKPYLWIKWSPPTLIDLKTGWFTLLYEIRLKPEKAAEWEIHFAGQQTEFKILSLHPGQKYLVQVRCKPDHGYWSAWSPATFIQIPSDFTMND | – | 4.9 nM
